B1: TPR t1 (parent)
chain: GACCAAUCUGCCCUCAGAGCUCGAGAACAUCUUCGGAUGCAGAGGAGGCAGGCUUCGGUGGCGCGAUAGCGCCAACGUCCUCAACCUCCAAUGCAUCCCACCACAUGAUGAUGCCUGAAGAGCCUUGGUUUUUUG

Variants of: B1
Test: polymerase ribozyme fitness, log enrichment relative to wild type (log ratio); higher = more active; in vitro selection for triplet polymerase activity
Outline: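 For each subunit of a heterodimeric triplet polymerase ribozyme, a mutant library was built by PCR and transcribed, then taken through a single in vitro selection round in triplicate. Selection involved annealing to a biotinylated primer, the partner subunit and triplets, incubation frozen at −7 °C, gel excision of extended constructs, capture on streptavidin beads and RT-PCR. Genotypes were retained after Illumina sequencing of inputs and outputs only with ≥10 input reads and ≥1 read in each output. Fitness is defined as the logarithm of a genotype's enrichment relative to wild-type enrichment, using inverse-variance-weighted averages across replicates, with the logarithm taken to base 2.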

Variant | polymerase ribozyme fitness (log ratio)
U78A A95C G113U U125G | -4.39
C73U U81A C98A G113A G117U U131G | -5.03
G77C G110U | -1.93
C73A U96C | 0.0129
C73U A91U U96A U112A G120U | -3.6
C72U C98A | -4.69
C76G C99A U112A | -4.02
C73A U87C U96C A111G | -0.596
C80U C88U A111G C114A | -4.84
A74G G113A | -1.8
C72U C101U | -0.522
C79G C124G | -0.0918
U81A A90C U92C | -4.05
C73U A83C | -2.2
U78C A84G C97G | -5.87
U78C G117U G128C G135C | -6.04
C72U G107C U109A U130A | -5.31
C73G C101U U112C G117C | -2.53
C76U C88A | -1.29
C73A C88A C89A U112G A119C | -2.76
G77A U81A G128A | -2.44

Variant | polymerase ribozyme fitness (log ratio)
C73A U125A | -0.432
A74G C80U | -1.69
A74U C102U | -2.82
C73A U87C | 0.572
C79G C102U | -4.67
U78A G113C | -2.57
C72U G77C C114U | -2.28
A74G G120A | 1.08
C80A G113A G135A | -3.66
C73U A84U | -0.363
C73U A100U | -0.959
C79A C99A | -6.57
C76U C86U A91U | -3.49
A75U C76G C88G C89U A90G | -2.47
C73U C114G | -1.76
C76U C82A C88U | -1.25
C80U C115G | -0.729
C80A A95U G120A U130G | -3.52
C73G C102U A119G | -1.29
C73U C97A U106C | -5.37
C80A G117A | -4.27

Variant | polymerase ribozyme fitness (log ratio)
C73A C97U | -0.11
C73G A100U | -1.09
C73G C98A | -6.22
C73G A84U | -1.52
C80U G120U | -0.245
C80U G120C | 0.704
C80U A121U | 1.34
G77A A91G | -1.01
C72U G120U | -0.256
C73G U116A | -3.66
C72U C123U | 0.155
G77A C94G | -1.19
C73U U112A | 1.41
A74C C79A U131G | -0.848
U81A A121C | 0.745
G77A G120U | -0.0426
C79U C80A | -3.65
C73A C114G U130A | -2.99
C72U U116A | -3.04
C76U A111U | -3.86
C73G C86U U109A | -6.23

Variant | polymerase ribozyme fitness (log ratio)
G77A A111C A119U C123A U131C | -2.38
U78G U116A | -3
U78A C115U | -1.41
C72U G77A A111U G113A | -5.99
A74C C82U A95C | -0.152
U78A C88G C98U G135A | -2.63
C80U G120C G127C | -0.289
C79A C115A G127C | -1.07
C79G A84C C104A | -4.75
C79G A121U | 0.316
U78G C102G | -4.94
A74C U109A | -5.88
C76A U78A A118U | 0.066
C73U C85U U116G | -3.31
C73G A111U | -4.08
G77C U96A | -1.58
C79G C94A | -2.62
A74G C80A C82U A118U | -2.93
C72U U96G | -1.42
C79A C80A C88A | -5.16
C79U G110C | -2.71
